Measured values reported in patent US20230295310A1 (ABCELLERA BIOLOGICS, published 2023).
Where a chain is given by its changes, count along the chain named. One block for each binder: values may come before it.

Columns and labels:
[1] = target: human EGFR, C-terminal eGFP-tagged, on CHO-K1 cells (human, UniProt P00533 25-1210); assay: cell-based or functional assay
EGFR on HeLa cells = EGFR on HeLa cells (UniProt P00533 25-1210, limits assumed); assay: cell-based or functional assay

- EC50 CHO-K1 EGFR Low (nM); T cell activation bioassay, luciferase [1]: 1.67 nM
- EC50 CHO-K1 EGFR Med (nM); T cell activation bioassay, luciferase [1]: 0.0606 nM
B1: GOMP001_bsAb_050 (bispecific antibody, human IgG1, kappa, L234A L235A)
heavy 1: QVQLVESGGGVVQPGRSLRLSCAASGFTFSTYGMHWVRYAPGKGLEWVAVIWYDGSHKYYADRVKGRFTISRDNSKKTLYLQMNSLRAEDTGIYYCARTGISGNMSYFYFDHWGRGILVTVSSASTKGPSVFPLAPSSKSTSGGTAALGCLVKDYFPEPVTVSWNSGALTSGVHTFPAVLQSSGLYSLSSVVTVPSSSLGTQTYICNVNHKPSNTKVDKKVEPKSCDKTHTCPPCPAPEAAGGPSVFLFPPKPKDTLMISRTPEVTCVVVDVSHEDPEVKFNWYVDGVEVHNAKTKPREEQYNSTYRVVSVLTVLHQDWLNGKEYKCKVSNKALPAPIEKTISKAKGQPRRPRVYTLPPSREEMTKNQVSLVCLVKGFYPSDIAVEWESNGQPENNYKTTPPVLDSDGSFFLYSVLTVDKSRWQQGNVFSCSVMHEALHNHYTQKSLSLSPG
light 1: not shown
heavy 2: QVQLVQSGAEVKKPGASVKVSCKASGYTFTSHWMHWVRYAPGQGLEWIGEFNPSNGRTNYNEKFKSKATMTVDTSTNTAYMELSSLRSEDTAVYYCASRDYDYDGRYFDYWGRGTLVTVSSASTKGPSVFPLAPSSKSTSGGTAALGCLVKDYFPEPVTVSWNSGALTSGVHTFPAVLQSSGLYSLSSVVTVPSSSLGTQTYICNVNHKPSNTKVDKKVEPKSCDKTHTCPPCPAPEAAGGPSVFLFPPKPKDTLMISRTPEVTCVVVDVSHEDPEVKFNWYVDGVEVHNAKTKPREEQYNSTYRVVSVLTVLHQDWLNGKEYKCKVSNKALPAPIEKTISKAKGQPRRPRVYTLPPSREEMTKNQVSLVCLVKGFYPSDIAVEWESNGQPENNYKTTPPVLDSDGSFFLYSVLTVDKSRWQQGNVFSCSVMHEALHNHYTQKSLSLSPG
light 2: DIQMTQSPSSLSASVGDRVTITCSASSSVTYMYWYQRKPGDAPKLLIYDTSNLASGVPSRFSGSGSGTDYTFTISSLQPEDIATYYCQQWSSHIFTFGQGTKVEIKRTVAAPSVFIFPPSDEQLKSGTASVVCLLNNFYPREAKVQWKVDNALQSGNSQESVTEQDSKDSTYSLSSTLTLSKADYEKHKVYACEVTHQGLSSPVTKSFNRGEC

- EC50 CHO-K1 EGFR Low (nM); T cell activation bioassay, luciferase [1]: 0.119 nM
- EC50 CHO-K1 EGFR Med (nM); T cell activation bioassay, luciferase [1]: 0.0139 nM
B2: GOMP001_bsAb_055 (bispecific antibody, human IgG1, kappa, L234A L235A)
heavy 1: QVQLVQSGAEVKKPGASVKVSCKASGYTFTSHWMHWVRKAPGQGLEWIGEFNPSNGRTNYNEEFKSKATMTVDTSTNTAYMELSSLRSEDTAVYYCASRDYDYDGRYFDYWGQGTLVTVSSASTKGPSVFPLAPSSKSTSGGTAALGCLVADYFPEPVTVSWNSGALTSGVHTFPAVLQSSGLYSLSSVVTVPSSSLGTQTYICNVNHKPSNTKVDEKVEPKSCDKTHTCPPCPAPEAAGGPSVFLFPPKPKDTLMISRTPEVTCVVVDVSHEDPEVKFNWYVDGVEVHNAKTKPREEQYNSTYRVVSVLTVLHQDWLNGKEYKCKVSNKALPAPIEKTISKAKGQPREPQVYTLPPSREEMTDNQVSLTCLVKGFYPSDIAVEWESNGQPENNYKTTPPVLMSDGSFFLASKLTVDKSRWQQGNVFSCSVMHEALHNHYTQKSLSLSPG
light 1: B1 light 2 with D1R, R37D, D41K, E122K, S130R
heavy 2: EVNLVESGGGLVQPGRSLRLSCAASGFTFDDYTMHWVRYVPGKGLEWVSNISWNSGSLGYADRVKGRFTISRDNAKDSLYLQMNSLRVEDTALYYCAKDSSGYGHYNSYYMDVWGRGTTVTVSSASTKGPSVFPLAPSSKSTSGGTAALGCLVKDYFPEPVTVSWNSGALTSGVHTFPAVLQSSGLYSLSSVVTVPSSSLGTQTYICNVNHKPSNTKVDKKVEPKSCDKTHTCPPCPAPEAAGGPSVFLFPPKPKDTLMISRTPEVTCVVVDVSHEDPEVKFNWYVDGVEVHNAKTKPREEQYNSTYRVVSVLTVLHQDWLNGKEYKCKVSNKALPAPIEKTISKAKGQPRRPRVYTLPPSREEMTKNQVSLVCLVKGFYPSDIAVEWESNGQPENNYKTTPPVLDSDGSFFLYSVLTVDKSRWQQGNVFSCSVMHEALHNHYTQKSLSLSPG
light 2: DIQMTQSPSSLSASVGDRVTITCRASQSIRNYLNWYQRKPGDAPKVLIYSASSLQSGVPSRFSGSGSGTDFTLTISSLQPEDFASFYCQQTYSTPITFGQGTRLEIKRTVAAPSVFIFPPSDEQLKSGTASVVCLLNNFYPREAKVQWKVDNALQSGNSQESVTEQDSKDSTYSLSSTLTLSKADYEKHKVYACEVTHQGLSSPVTKSFNRGEC

- EC50 CHO-K1 EGFR Low (nM); T cell activation bioassay, luciferase [1]: 1.23 nM
- EC50 CHO-K1 EGFR Med (nM); T cell activation bioassay, luciferase [1]: 0.0922 nM
B3: GOMP001_bsAb_051 (bispecific antibody, human IgG1, kappa, L234A L235A)
heavy 1: B2 heavy 1
light 1: B1 light 2 with D1R, R37D, D41K, E122K, S130R
heavy 2: LRSDDTAVYYCARGVRGNYYYYYMDVWGRGTTVTVSSASTKGPSVFPLAPSSKSTSGGTAALGCLVKDYFPEPVTVSWNSGALTSGVHTFPAVLQSSGLYSLSSVVTVPSSSLGTQTYICNVNHKPSNTKVDKKVEPKSCDKTHTCPPCPAPEAAGGPSVFLFPPKPKDTLMISRTPEVTCVVVDVSHEDPEVKFNWYVDGVEVHNAKTKPREEQYNSTYRVVSVLTVLHQDWLNGKEYKCKVSNKALPAPIEKTISKAKGQPRRPRVYTLPPSREEMTKNQVSLVCLVKGFYPSDIAVEWESNGQPENNYKTTPPVLDSDGSFFLYSVLTVDKSRWQQGNVFSCSVMHEALHNHYTQKSLSLSPG
light 2: EIVLTQSPDFQSVTPKEKVTITCRASQSIGSKLHWYQRKPDDSPKLLIKYASQSFSGVPSRFSGSGSGTDFNLTINSLEAEDAATFYCHQSSGLPYTFGQGTKLEIKRTVAAPSVFIFPPSDEQLKSGTASVVCLLNNFYPREAKVQWKVDNALQSGNSQESVTEQDSKDSTYSLSSTLTLSKADYEKHKVYACEVTHQGLSSPVTKSFNRGEC

- X… HeLa EC50 (EGFR on HeLa cells): 0.0395 nM
B4: GOMP001_bsAb_012 (bispecific antibody, human IgG1, kappa, L234A L235A)
heavy 1: EVQLVESGGGLVQPGGSLRLSCAASGFTLSSYTMNWVRKAPGKGLEWVSYISSSSRTIYYSDEVKGRFSISRDNAKNSLYLQMNSLRDEDTALYYCAREDYYDSSGFDNWGQGTLVTVSSASTKGPSVFPLAPSSKSTSGGTAALGCLVADYFPEPVTVSWNSGALTSGVHTFPAVLQSSGLYSLSSVVTVPSSSLGTQTYICNVNHKPSNTKVDEKVEPKSCDKTHTCPPCPAPEAAGGPSVFLFPPKPKDTLMISRTPEVTCVVVDVSHEDPEVKFNWYVDGVEVHNAKTKPREEQYNSTYRVVSVLTVLHQDWLNGKEYKCKVSNKALPAPIEKTISKAKGQPREPQVYTLPPSREEMTDNQVSLTCLVKGFYPSDIAVEWESNGQPENNYKTTPPVLMSDGSFFLASKLTVDKSRWQQGNVFSCSVMHEALHNHYTQKSLSLSPG
light 1: RIRMTQSPSSFSASTGDRVTITCRASQGISSYLAWYQDKPGKAPKLLIYTASTLQSGVPSRFSGSGSGTDFTLTIRSLQSEDFATYYCQQYYSYPRTFGQGTKVEIKRTVAAPSVFIFPPSDKQLKSGTARVVCLLNNFYPREAKVQWKVDNALQSGNSQESVTEQDSKDSTYSLSSTLTLSKADYEKHKVYACEVTHQGLSSPVTKSFNRGEC
heavy 2: B1 heavy 2
light 2: B1 light 2
- Max killing % (EGFR on HeLa cells): 93.3%

- EC50 CHO-K1 EGFR Low (nM); T cell activation bioassay, luciferase [1]: 0.0291 nM
- EC50 CHO-K1 EGFR Med (nM); T cell activation bioassay, luciferase [1]: 0.00412 nM
B5: GOMP001_bsAb_056 (bispecific antibody, human IgG1, kappa, L234A L235A)
heavy 1: B2 heavy 2
light 1: B2 light 2
heavy 2: B1 heavy 2
light 2: B1 light 2

- X… HeLa EC50 (EGFR on HeLa cells): 0.0693 nM
B6: GOMP001_bsAb_011 (bispecific antibody, human IgG1, kappa, L234A L235A)
heavy 1: B2 heavy 1
light 1: B1 light 2 with D1R, R37D, D41K, E122K, S130R
heavy 2: EVQLVESGGGLVQPGGSLRLSCAASGFTLSSYTMNWVRYAPGKGLEWVSYISSSSRTIYYSDRVKGRFSISRDNAKNSLYLQMNSLRDEDTALYYCAREDYYDSSGFDNWGRGTLVTVSSASTKGPSVFPLAPSSKSTSGGTAALGCLVKDYFPEPVTVSWNSGALTSGVHTFPAVLQSSGLYSLSSVVTVPSSSLGTQTYICNVNHKPSNTKVDKKVEPKSCDKTHTCPPCPAPEAAGGPSVFLFPPKPKDTLMISRTPEVTCVVVDVSHEDPEVKFNWYVDGVEVHNAKTKPREEQYNSTYRVVSVLTVLHQDWLNGKEYKCKVSNKALPAPIEKTISKAKGQPRRPRVYTLPPSREEMTKNQVSLVCLVKGFYPSDIAVEWESNGQPENNYKTTPPVLDSDGSFFLYSVLTVDKSRWQQGNVFSCSVMHEALHNHYTQKSLSLSPG
light 2: B4 light 1 with R1D, D38R, K42D, K123E, R131S
- Max killing % (EGFR on HeLa cells): 77.8%
